FireProtDB (doi:10.1021/bi00185a025)

B1: Chemotaxis protein CheY, P0AE67 (parent)
chain: MADKELKFLVVDDFSTMRRIVRNLLKELGFNNVEEAEDGVDALNKLQAGGYGFVISDWNMPNMDGLELLKTIRADGAMSALPVLMVTAEAKKENIIAAAQAGASGYVVKPFTAATLEEKLNKIFEKLGM

Variants of: B1
Settings: Escherichia coli (strain K12); pH 7; 25 °C; Urea; CD; Sodium phosphate 5 mM; reversible: yes; structure 1CEY; whole UniProt chain shown

| Variant | ddG of mutation (higher = less stable) | denaturant m value | denaturant midpoint (higher = more stable) | unfolding free energy |
| --- | --- | --- | --- | --- |
| MADKELKFLVVDDNSTMRRIVRNLLKELGFNNVEEAEDGVDALNKLQAGGYGFVISDWNMPNMDGLELLKTIRADGAMSALPVLMVTAEAKKENIIAAAQAGASGYVVKPFTAATLEEKLNKIFEKLGM [F14N] | -2.9 kcal/mol | 1.8 kcal/mol/M | 4.5 M | 8.1 kcal/mol |
| MADKELKFLVVDDNSTMRRIVRNLLKELGFNNVEEAEDGVDALNKLQAGGYGFVISDWNMPNMDGLELLKTIRADGAMSALPVLMVTAEAKKENIIAAAQAGASGYVVKGFTAATLEEKLNKIFEKLGM [P110G F14N] | -1.1 kcal/mol | 1.6 kcal/mol/M | 3.94 M | 6.3 kcal/mol |
